In patent publication US20090075394A1:

Target: Aeropyrum pernix KvAP voltage-dependent potassium channel (Aeropyrum pernix) (UniProt Q9YDF8)
Test: inhibition of KvAP channel currents by CTX, channels in planar lipid bilayers

Sequence of Aeropyrum pernix KvAP voltage-dependent potassium channel (Aeropyrum pernix) (Q9YDF8 14-295): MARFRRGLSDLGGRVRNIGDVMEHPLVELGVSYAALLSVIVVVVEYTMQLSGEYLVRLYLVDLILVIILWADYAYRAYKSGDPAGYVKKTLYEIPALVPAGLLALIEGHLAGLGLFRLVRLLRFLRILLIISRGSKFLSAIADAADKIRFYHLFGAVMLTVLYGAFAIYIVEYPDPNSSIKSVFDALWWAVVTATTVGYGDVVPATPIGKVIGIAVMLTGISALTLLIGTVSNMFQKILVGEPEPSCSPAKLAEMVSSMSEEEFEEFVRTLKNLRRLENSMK

## charybdotoxin (from UniProt P13487 23-59) (peptide)
  Kd: 400 µM
